Residue numbers refer to the chain shown, from its start. In names and notes the source's numbering stands. One block for each binder: values may come before it.
Columns and labels:
[1] = molecular target: T1, synthetic amyloid-like fibrils of recombinant amyloidogenic λ6 variable domain protein (rVλ6Wil); experiment: pulldown, labelled antibody
T1 construct: domain: λ6 variable domain; Fibrillar aggregate of many copies; also called rVλ6Wil fibrils; rVλ6Wil synthetic fibrils

[2] = molecular target: T2, Aβ(1-40) amyloid-like fibrils (UniProt P05067 672-711); experiment: pulldown, labelled antibody
T2 construct: domain: Aβ(1-40); Fibrillar aggregate; The numbers 1-40 count on Aβ, not on the precursor; also called Aβ(1-40) fibrils

hIAPP fibril = molecular target: T3, hIAPP fibril (UniProt P10997 34-70); experiment: pulldown, labelled antibody
T3 construct: Fibrillar aggregate
T3 chain (looked up): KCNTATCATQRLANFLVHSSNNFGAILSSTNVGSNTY

[3] = molecular target: T1, synthetic amyloid-like fibrils of …; experiment: EuLISA, substrate coated on plate
Description: (§1) To perform europium-linked immunosorbent assays (EuLISAs), suspensions of rVλ6Wil fibrils (sonicated) were prepared at 0.83 μM in phosphate buffered saline (PBS). The fibrils were coated onto the wells of a 96-well microplate by adding 50 μL to each well. The plates dried at 37° C. overnight. The wells of the microplate were blocked by addition of Superblock (Thermofisher) (SB) using 200 µL/well, and left at 37° C. for 1 hour. The primary (test) antibody (i.e., the humanized antibody) were added, prepared in SB+0.05% tween 20 (SBT) in a 1:2 dilution series starting at 1 μM using 100 µL/well. Plates were then incubated for 1 hour at 37° C. After a wash step (plates were washed three times using PBS+0.05% tween 20), secondary antibody was added as a 1:3000 dilution of biotinylated goat anti-human IgG (Sigma) in SBT at 100 µL/well. The plates were incubated for 1 hour at 37° C. After another wash step, 100 µL/well of a 1:1000 dilution of europium/streptavidin (Perkin Elmer) in SBT was added. The plates were incubated for 1 hour at 37° C. After a final wash step, 100 μL/well of europium enhancement solution (Perkin Elmer) was added. Time-resolved fluorescence emission was detected using a microplate reader (Wallac).
(§2) Table 8, below, provides the results of the ELISAs measuring the ability of mIgp5, hIgG1, c11-1F4, m11-1F4, VH6/VL3-p5, VH9/VL4-p5, and VH9/VL4-p5R to bind rVλ6Wil fibrils, Per125 wtATTR extract, KEN hATTR extract, SHI ALλ liver extract, and TAL ALκliver extract. For each combination of antibody and substrate, the Log-transformed EC₅₀, EC₅₀, and maximal level of binding in the assay is shown. Conditions labeled “na” were not tested.

[4] = molecular target: T1, synthetic amyloid-like fibrils of …; experiment: EuLISA, fibrils coated on plate (FIG. 13B)
[5] = molecular target: T4, Vκ4Len(1-22) monomer peptide (Homo sapiens (Human), UniProt P06312 21-42); experiment: pulldown, labelled antibody, peptide on beads
T4 construct: Free peptide as analyte in SPR; also called Vκ4(LEN(1-22) beads)
T4 peptide: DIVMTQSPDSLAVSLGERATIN

[6] = molecular target: T5, Per125 wtATTR amyloid extract (human, UniProt P02766 21-147); experiment: EuLISA, extract coated on plate
[7] = molecular target: T6, Per125 wtATTR amyloid extract (human, UniProt P02766 21-147); experiment: EuLISA, substrate coated on plate
Description: as §1, §2

[8] = molecular target: T7, SHI ALλ liver amyloid extract; experiment: EuLISA, substrate coated on plate
T7 construct: Tissue amyloid extract; also called SHI AL liver extract; ALλ SHI extract
Description: as §1, §2

[9] = molecular target: T8, TAL ALκ liver amyloid extract; experiment: EuLISA, substrate coated on plate
T8 construct: Tissue amyloid extract; also called ALκTAL extract
Description: as §1, §2

[10] = molecular target: T5, Per125 wtATTR amyloid extract; experiment: pulldown, labelled antibody
[11] = molecular target: T5, Per125 wtATTR amyloid extract; experiment: EuLISA, substrate coated on plate; remark: listed apart in the source
Description: as §1, §2

[12] = molecular target: T4, Vκ4Len(1-22) monomer peptide; experiment: SPR Biacore 8K, antibody immobilised, peptide as analyte
Description: The affinity of humanized anti-amyloid antibodies binding to Vκ4Len(1-22) (“Len(1-22) monomer”) monomer peptide—the natural ligand for the m11-1F4 antibody—was measured using a Biacore 8K surface plasmon resonance (SPR) system. Parental antibody m11-1F4 binds to an epitope present at the N-terminal of denatured kappa 4 light chain proteins. The Len (1-22) monomer is a peptide comprising this epitope, as described in International Application No. PCT/US2017/015905. Binding affinities of anti-amyloid antibodies incorporating the humanized heavy chain region VH9 and the humanized light chain VL4 were tested, including versions of VH9 and VL4 with additional mutations (Table 5).
All SPR data were processed using the Biacore 8K Evaluation software version 1.1. Flow cell 1 and blank injections of buffer in each cycle were used as double reference for Response Units subtraction.
Table 7 provides the results of SPR assays measuring the binding of the humanized anti-amyloid antibodies to a Len(1-22) Monomer peptide. Specifically, the humanized VH9 and VL4 sequences were tested with or without additional amino acid substitutions, as indicated in the “Ligand” column of Table 7.

[13] = molecular target: T6, Per125 wtATTR amyloid extract; experiment: pulldown, labelled antibody; remark: listed apart in the source
[14] = molecular target: Per253 wild type (wt) ATTR amyloid extract (human, UniProt P02766 21-147); experiment: pulldown, labelled antibody
[15] = molecular target: T7, SHI ALλ liver amyloid extract; experiment: pulldown, labelled antibody
[16] = molecular target: T8, TAL ALκ liver amyloid extract; experiment: pulldown, labelled antibody
HIG ALκ1 amyloid extract = molecular target: T9, HIG ALκ1 amyloid extract; experiment: pulldown, labelled antibody
T9 construct: Tissue amyloid extract; also called ALκ HIG extract

TYL ALλ amyloid extract = molecular target: T10, TYL ALλ amyloid extract; experiment: pulldown, labelled antibody
T10 construct: Tissue amyloid extract; also called ALλ TYL extract

[17] = molecular target: T1, synthetic amyloid-like fibrils of …; experiment: pulldown, 125I-labelled antibody

T2 sequence (P05067 672-711 limits assumed): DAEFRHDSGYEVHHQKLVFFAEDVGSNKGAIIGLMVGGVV

percent bound [1]: 22.5%
percent bound [2]: 20.6%
percent bound (hIAPP fibril): 4.82%
EC50 [3]: 3.49 nM
LogEC50 [3]: 8.46 -log(M)
Max (maximal level of binding) [3]: 65.3
EC50 [4]: 3 nM
fold enhancement of binding over VH6/VL3 (based on EC50) [4]: ~30 fold
percent bound [5]: 54.9%
B1: VH6/VL3-p5 (humanized VH6/VL3 with peptide p5 fused to the N-terminal of the light chain) (antibody, V domains shown)
VH: QVQLQESGPGLVKPSETLSLTCTVSGFSLSSYGVSWVRQPPGKGLEWLGVIWGDGSTNYHPNLMSRLSISKDTSKNQFSLKLSSVTAADTATYYCVTLDYWGQGTSVTVSS
VL: DVVMTQSPLSLPVTLGQPASISCRSSQSLVHRNGNTYLHWYLQRPGQSPRLLIYKVSNRFSGVPDRFSGSGSGTDFTLKISRVEAEDVGLYFCFQTTYVPNTFGGGTKLEIK

EC50 [6]: 85 nM
EC50 [4]: 3 nM
fold enhancement of binding over VH6/VL3 (based on EC50) [4]: ~30 fold
B2: VH6/VL3-p5R (humanized VH6/VL3 with peptide p5R fused to the N-terminal of the light chain) (antibody, V domains shown)
VH: B1 VH
VL: B1 VL

Max (maximal level of binding) [3]: 184
Max (maximal level of binding) [7]: 209
Max (maximal level of binding) [8]: ~1510
Max (maximal level of binding) [9]: ~35100
B3: murine antibody m11-1F4 (antibody, V domains shown)
VH: QVQLKESGPGLVAPSQSLSITCTVSGFSLSSYGVSWVRQPPGKGLEWLGVIWGDGSTNYHPNLMSRLSISKDISKSQVLFKLNSLQTDDTATYYCVTLDYWGQGTSVTVSS
VL: B1 VL with S7T, T14S, Q17D, P18Q, R44K, R50K, V88L
notes: Murine IgG1 kappa; also called murine 11-1F4; m1-1F4

Max (maximal level of binding) [3]: 63.9
Max (maximal level of binding) [7]: 71.1
Max (maximal level of binding) [8]: 51.3
Max (maximal level of binding) [9]: ~17800
B4: chimeric (c) 11-1F4 (antibody, V domains shown)
VH: B3 VH
VL: B1 VL with S7T, T14S, Q17D, P18Q, R44K, R50K, V88L
notes: also called ch11-1F4; ci1-1F4

percent bound [10]: 1.12%
percent bound [1]: 22.6%
EC50 [11]: 14 nM
LogEC50 [11]: 7.86 -log(M)
Max (maximal level of binding) [11]: 55.7
EC50 [3]: 3.91 nM
LogEC50 [3]: 8.41 -log(M)
Max (maximal level of binding) [3]: 82.7
percent bound [5]: 50.2%
B5: VH9/VL4-p5R (humanized VH9/VL4 with peptide p5R fused to the N-terminal of the light chain) (antibody, V domains shown)
VH: B1 VH with V37I, L67V, S68T, K71V, N76S, F78V, S79L, L80F, T92V, V96A
VL: B1 VL with Y41F, L42Q, L90V

percent bound [10]: 1.33%
percent bound [1]: 24.7%
EC50 [11]: 24.5 nM
LogEC50 [11]: 7.61 -log(M)
Max (maximal level of binding) [11]: 58.1
EC50 [3]: 4.05 nM
LogEC50 [3]: 8.39 -log(M)
Max (maximal level of binding) [3]: 71
percent bound [5]: 54.4%
B6: VH9/VL4-p5 (humanized VH9/VL4 with peptide p5 fused to the N-terminal of the light chain) (antibody, V domains shown)
VH: B1 VH with V37I, L67V, S68T, K71V, N76S, F78V, S79L, L80F, T92V, V96A
VL: B1 VL with Y41F, L42Q, L90V

Kd [12]: 35 nM
koff [12]: 0.00146 s⁻¹
kon [12]: 41800 M⁻¹ s⁻¹
B7: VH9 + VL4-G34V (antibody, V domains shown)
VH: B1 VH with V37I, L67V, S68T, K71V, N76S, F78V, S79L, L80F, T92V, V96A
VL: B1 VL with G34V, Y41F, L42Q, L90V

percent bound [1]: 71%
percent bound [13]: 31%
percent bound [14]: 17%
percent bound [15]: 34%
percent bound [16]: 37%
percent bound (HIG ALκ1 amyloid extract): 10%
percent bound (TYL ALλ amyloid extract): 21%
fold higher binding than murine 11-1F4 [17]: 21 fold
EC50 [3]: 2.88 nM
LogEC50 [3]: 8.54 -log(M)
Max (maximal level of binding) [3]: 58.5
EC50 [7]: 6.24 nM
LogEC50 [7]: 8.21 -log(M)
Max (maximal level of binding) [7]: 31.7
EC50 [8]: 2.94 nM
LogEC50 [8]: 8.53 -log(M)
Max (maximal level of binding) [8]: 24
EC50 [9]: 3.37 nM
LogEC50 [9]: 8.47 -log(M)
Max (maximal level of binding) [9]: 24.6
B8: murine Ig-peptide fusion Igp5 (murine 11-1F4 with peptide p5 fused to the N-terminus of the light chain) (antibody)
heavy: B3 VH
light: AQAGQAGQAQGGGYSKAQKAQAKQAKQAQKAQKAQAKQAKQVTPTVDVVMTQTPLSLPVSLGDQASISCRSSQSLVHRNGNTYLHWYLQKPGQSPKLLIYKVSNRFSGVPDRFSGSGSGTDFTLKISRVEAEDLGLYFCFQTTYVPNTFGGGTKLEIK
notes: Antibody-peptide fusion; unlabelled in the EuLISA; also called mIgp5; mIgG-p5; not shown: murine 11-1F4 (IgG1) CH1 followed by murine IgG2a CH2-CH3 (pFUSE-mIgG2A-Fc); murine 11-1F4 kappa constant region (CL)
